± gives the half width of the 95% confidence interval.
Key:
[1] = folding stability dG unfold from trypsin proteolysis; higher = more stable
In short: (§1)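 Designed mini-proteins (under 80 residues, no cysteine) in a PA-tagged cDNA display construct were digested with trypsin and chymotrypsin. Each protease was used at 11 concentrations (threefold dilutions) plus a no-protease condition, followed by sequencing. K50 was inferred by Bayesian fitting of sequencing counts, and unfolding free energy was derived against a sequence-predicted unfolded-state K50 and a shared folded-state K50, per protease or combined. Only designs with AlphaFold2 dimer inter-PAE above 15 were kept.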

[2] = folding stability dG unfold from chymotrypsin proteolysis; higher = more stable
In short: as §1

[3] = folding stability dG unfold (combined trypsin and chymotrypsin); higher = more stable
In short: as §1

Sequence	folding stability dG unfold [1] [kcal/mol]	folding stability dG unfold [2] [kcal/mol]	folding stability dG unfold [3] [kcal/mol]
SAGGSAGGSAGMTVEEFTIPEVGGRVIRTTVEEPTEDGVVVRRRYLILVNPDGTVERRPESAGGSAGGSAGG [r11_911_JUSTAS]	-0.0463 ± 0.17	0.13 ± 0.17	0.111 ± 0.092
SAGGSAGGSAGMTVPPELSVTITRSPEGSLRVESPVPDRELTIPPDVPLTVSPDNVVTVASAGGSAGGSAGG [r17_49_JUSTAS]	0.451 ± 0.031	0.783 ± 0.017	0.655 ± 0.041
SAGGSAGGSAGMTVPTSVEVSPDGTVRVRQLRWVRHGDGWRPFTFTVTLPISDDALKALKSAGGSAGGSAGG [r17_415_TrMRF]	1.02 ± 0.038	1.14 ± 0.059	1.12 ± 0.038
SAGGSAGGSAGMVIEDPSGVTTVVTFDTSVPVVTTTTLTKDPNSNNYTTTTTTTPVTVPVSAGGSAGGSAGG [r17_491_JUSTAS]	1.34 ± 0.099	0.725 ± 0.11	1.06 ± 0.073
SAGGSAGGSAGMVIERPDDKVLVILGYDPEKGKVYVAVYDPKTGEVRFKEFDNLEDEIKDSAGGSAGGSAGG [r17_300_TrMRF]	2.16 ± 0.11	1.76 ± 0.08	1.91 ± 0.17
SAGGSAGGSAGMVIEVGGKKVTIEKNEDGSLKITVTDKNGKKKEITIPGMSLEEILKALKSAGGSAGGSAGG [r11_934_TrROS_Hall]	3.23 ± 0.076	2.57 ± 0.036	2.9 ± 0.081
SAGGSAGGSAGMVINVTVTLKNSTGTITITLPVPPDLLDEVLKELKEKPDYEVVSVDTSPSAGGSAGGSAGG [r11_692_JUSTAS]	2.47 ± 0.11	2.79 ± 0.16	2.67 ± 0.14
SAGGSAGGSAGMVITKDPNGNYTVDLVLPDGTPLDSGTITLEEVEKILKERGIPLKEIFGSAGGSAGGSAGG [r11_521_JUSTAS]	-0.271 ± 0.27	0.543 ± 0.048	0.361 ± 0.12
SAGGSAGGSAGMVKLRFEVKFKIKLLGEGETNEVVEVDVKVEFEVTLPPFKVRPDGSLLESAGGSAGGSAGG [r11_558_TrMRF]	3.2 ± 0.24	4.39 ± 0.15	4.03 ± 0.21
SAGGSAGGSAGMVKVKITAPPNASLDAIIKAVKDNGAEIISIERKGNELIIEVEIPEENASAGGSAGGSAGG [r11_672_TrMRF]	1.54 ± 0.054	1.28 ± 0.046	1.42 ± 0.062
SAGGSAGGSAGMVLRVRTKDGKVIEIKDLSEELKNMTAEQLAEELKKKFPDLKIEVEEVPSAGGSAGGSAGG [r17_42_TrROS_Hall]	2.19 ± 0.14	2.26 ± 0.05	2.37 ± 0.15
SAGGSAGGSAGNKDYPVIEVTYPFPPGAPASDIKDFAEPFGFESIEFDDNGTVKVYFYLPSAGGSAGGSAGG [r11_961_TrROS]	0.737 ± 0.051	0.818 ± 0.11	0.825 ± 0.087
SAGGSAGGSAGNKPVTVRFTIKIPLPNGKKLEIPVEVTYDSPEDRDRAEKEAEEIAREFLSAGGSAGGSAGG [r17_510_TrROS]	1.5 ± 0.057	1.11 ± 0.098	1.36 ± 0.097
SAGGSAGGSAGNMEVIEEVEFTFPGLGVKISVSIFKTDGGIVIMIDIEIPMPPEDRKKFKSAGGSAGGSAGG [r17_431_TrROS]	0.857 ± 0.097	1.61 ± 0.18	1.25 ± 0.15
SAGGSAGGSAGNPPNKPKPIIKVVPFRYRFYIPETGSVIEIDIYVFEDDTVKIKIKTYPLSAGGSAGGSAGG [r11_883_TrMRF]	3.73 ± 0.28	5.38 ± 0.2	5.03 ± 0.22
SAGGSAGGSAGNYMVRLEIEMPENGRKVEWMVPEDDPEEILEKFPWLKEHGMEVKIEVFPSAGGSAGGSAGG [r17_176_TrROS]	0.236 ± 0.037	0.638 ± 0.08	0.498 ± 0.1
SAGGSAGGSAGPALRIPFLVERPDGSPFWAEARVYEDGTVELRIYGDEPIATFTFPLDELSAGGSAGGSAGG [r11_327_TrMRF]	1.55 ± 0.044	1.6 ± 0.15	1.68 ± 0.15
SAGGSAGGSAGPFEGYRDKKGKYYLETPDGTKELDSEEELEEEKKRLLEEGIPINVKPSASAGGSAGGSAGG [r17_35_JUSTAS]	-0.308 ± 0.11	0.71 ± 0.14	0.458 ± 0.26

— the supplement of paper PMC12764529
